In article PMC11211068 (The Journal of Experimental Medicine, 2024):

Experiments:
[1] = target: T1, H1 HA from A/Michigan/45/2015 H1N1, recombinant (Immune Technology) (Influenza A virus A/Michigan/45/2015 …, UniProt A0A1J0CXU0, strain); experiment: ELISA
[2] = target: H1 HA from A/Solomon Islands/3/2006 H1N1, recombinant (IRR FR-67) (Influenza A virus A/Solomon …, UniProt A7Y8I1, strain); experiment: ELISA
[3] = target: H1 HA from A/Brisbane/59/2007 H1N1, recombinant (IRR FR-65) (Influenza A virus A/Brisbane/59/2007 …, UniProt D5F1Q8, strain); experiment: ELISA
[4] = target: H1 HA from A/Norway/3206-3/2009 H1N1, recombinant (IRR FR-697) (Influenza A virus A/Norway/3206-3/2009 …, UniProt C3W5S1, strain); experiment: ELISA
[5] = target: H1 HA from A/California/04/2009 H1N1pdm09, recombinant (Immune Technology) (Influenza A virus A/California/04/2009 …, UniProt C3W5S1, strain); experiment: ELISA
[6] = target: T1, H1 HA from A/Michigan/45/2015 H1N1, …; experiment: BLI

Measured: binding result

B1: 05.GC.w2.3C10 (antibody, V domains shown)
VH: EVQLVQSGAEVKKPGSSVRVSCKASGGTFSAISWVRQAPGQGLEWMGGIIPVFGTANYAQKFQGRVTITADDSTSTAYMEVSSLRSDDTAVYYCAREETWKGATIGVMGIWGQGTMVTVSS
VL: DIQMTQSPSSLSASVGDRVTITCRASQSISSYLNWYQHKPGKAPKLLIFTASNLQSGVPSRFSGGGSGTDFTLTISSLQPEDFATYYCQQSYTSPRTFGQGTKVEIK
binds: [1] | [2] | [3]

B2: 05.GC.w13.02 (antibody, V domains shown)
VH: QVQLVQSGTEVKKPGSSVKVSCKASGVTFSSYAMSWVRQAPGQGLEWMGGFIPILGTANYAQKFQGRLTITADGLTGTVYMELSRLRSEDTAVYYCAREVTWKGASIGVLGIWGQGTMVSVSA
VL: DIQMTQSPSSLSASVGDRVIITCRANQSIGGYLNWYQQKPGKAPNLLIFTASTLQSGVPSRFSGGGSGTDFTLTISSLQPEDFATYYCQQNYNTPRTFGQGTKVDIK
not listed: [6]
binds: all other assays above

B3: 05.GC.w13.01 (antibody, V domains shown)
VH: QVQLVQSGAEVKKPGSSVKVSCEASGVTFSSYAVSWVRQAPGQGLEWMGGIIPIVGTANYAQKFQGRVTITADGLTSTVYMELSRLRSEDTAVYFCAREATWKGSSIGVLGIWGQGTMVTVSA
VL: DIQMTQSPSSLSASVGDRVTITCRASQSISDYLNWYQQKPGKAPSLLIFSASTLQSGVPSRFSGSGSGTDFTLTISSLQPEDFATYYCQQNYNTPRTFGQGTKVEIK
not listed: [6]
binds: all other assays above

B4: 05.GC.w13.02 Fab, His6 tag removed with thrombin (Fab, V domains shown)
VH: QVQLVQSGTEVKKPGSSVKVSCKASGVTFSSYAMSWVRQAPGQGLEWMGGFIPILGTANYAQKFQGRLTITADGLTGTVYMELSRLRSEDTAVYYCAREVTWKGASIGVLGIWGQGTMVSVSA
VL: DIQMTQSPSSLSASVGDRVIITCRANQSIGGYLNWYQQKPGKAPNLLIFTASTLQSGVPSRFSGGGSGTDFTLTISSLQPEDFATYYCQQNYNTPRTFGQGTKVDIK
binds: [6]
